Earlier results as cited in PMC8757841.

Target: Transferrin receptor (Rattus norvegicus) (UniProt Q99376)
UniProt Q99376, sequence (Q99376 whole entry): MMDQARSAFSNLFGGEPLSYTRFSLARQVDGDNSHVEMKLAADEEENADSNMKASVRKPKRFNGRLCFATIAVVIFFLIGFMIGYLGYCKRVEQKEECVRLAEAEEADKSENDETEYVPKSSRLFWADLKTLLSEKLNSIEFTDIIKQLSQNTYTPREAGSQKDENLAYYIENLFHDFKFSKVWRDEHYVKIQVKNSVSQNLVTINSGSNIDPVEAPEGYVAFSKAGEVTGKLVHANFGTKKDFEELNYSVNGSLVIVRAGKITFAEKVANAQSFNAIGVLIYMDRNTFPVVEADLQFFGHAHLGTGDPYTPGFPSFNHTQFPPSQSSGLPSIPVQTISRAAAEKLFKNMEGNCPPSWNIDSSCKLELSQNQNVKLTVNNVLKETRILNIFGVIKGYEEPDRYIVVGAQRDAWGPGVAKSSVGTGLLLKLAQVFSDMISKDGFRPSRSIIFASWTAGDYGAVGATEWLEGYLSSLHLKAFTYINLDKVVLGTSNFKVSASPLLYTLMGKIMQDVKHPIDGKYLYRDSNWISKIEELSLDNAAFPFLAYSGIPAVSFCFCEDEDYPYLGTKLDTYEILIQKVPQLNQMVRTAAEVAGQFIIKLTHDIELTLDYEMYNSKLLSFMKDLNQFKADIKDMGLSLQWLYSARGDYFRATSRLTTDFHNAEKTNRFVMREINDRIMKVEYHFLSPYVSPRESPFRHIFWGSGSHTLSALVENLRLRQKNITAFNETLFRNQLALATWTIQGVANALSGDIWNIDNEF

Transferrin, sequence (P12346 20-698): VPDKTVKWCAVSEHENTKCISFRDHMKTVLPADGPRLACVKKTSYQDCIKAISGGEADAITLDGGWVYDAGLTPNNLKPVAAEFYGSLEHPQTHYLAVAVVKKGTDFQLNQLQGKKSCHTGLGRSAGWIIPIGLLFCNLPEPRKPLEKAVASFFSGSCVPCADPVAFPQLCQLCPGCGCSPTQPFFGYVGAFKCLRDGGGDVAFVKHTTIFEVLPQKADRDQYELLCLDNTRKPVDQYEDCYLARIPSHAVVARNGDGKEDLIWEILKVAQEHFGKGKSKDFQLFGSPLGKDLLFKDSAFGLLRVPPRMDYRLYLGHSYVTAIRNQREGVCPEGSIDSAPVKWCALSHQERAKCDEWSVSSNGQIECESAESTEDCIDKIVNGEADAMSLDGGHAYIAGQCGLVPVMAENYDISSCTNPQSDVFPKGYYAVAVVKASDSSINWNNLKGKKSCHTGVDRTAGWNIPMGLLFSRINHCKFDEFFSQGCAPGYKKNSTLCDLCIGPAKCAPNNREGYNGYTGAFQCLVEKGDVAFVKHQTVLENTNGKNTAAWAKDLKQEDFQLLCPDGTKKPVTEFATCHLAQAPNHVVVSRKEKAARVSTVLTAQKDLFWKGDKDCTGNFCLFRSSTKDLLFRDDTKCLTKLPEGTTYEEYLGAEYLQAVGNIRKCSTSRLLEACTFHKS

Transferrin (from UniProt P12346)
Kd: 5 nM
